# Reference: US9284543B2, “Neutral active soluble truncated PH20 polypeptides and uses thereof” (Halozyme, Inc., priority 2008, dated 2016)
# B1: SPAM1-TLSA: C-terminally truncated human PH20, precursor 491 aa (SEQ ID NO:11), mature 456 aa (SEQ ID NO:63) (protein, listed as Homo sapiens)
# chain 1: MGVLKFKHIFFRSFVKSSGVSQIVFTFLLIPCCLTLNFRAPPVIPNVPFLWAWNAPSEFCLGKFDEPLDMSLFSFIGSPRINATGQGVTIFYVDRLGYYPYIDSITGVTVNGGIPQKISLQDHLDKAKKDITFYMPVDNLGMAVIDWEEWRPTWARNWKPKDVYKNRSIELVQQQNVQLSLTEATEKAKQEFEKAGKDFLVETIKLGKLLRPNHLWGYYLFPDCYNHHYKKPGYNGSCFNVEIKRNDDLSWLWNESTALYPSIYLNTQQSPVAATLYVRNRVREAIRVSKIPDAKSPLPVFAYTRIVFTDQVLKFLSQDELVYTFGETVALGASGIVIWGTLSIMRSMKSCLLLDNYMETILNPYIINVTLAAKMCSQVLCQEQGVCIRKNWNSSDYLHLNPDNFAIQLEKGGKFTVRGKPTLEDLEQFSEKFYCSCYSTLSCKEKADVKDTDAVDVCIADGVCIDAFLKPPMETEEPQIFYNASPSTLSA
# chain 2: LNFRAPPVIPNVPFLWAWNAPSEFCLGKFDEPLDMSLFSFIGSPRINATGQGVTIFYVDRLGYYPYIDSITGVTVNGGIPQKISLQDHLDKAKKDITFYMPVDNLGMAVIDWEEWRPTWARNWKPKDVYKNRSIELVQQQNVQLSLTEATEKAKQEFEKAGKDFLVETIKLGKLLRPNHLWGYYLFPDCYNHHYKKPGYNGSCFNVEIKRNDDLSWLWNESTALYPSIYLNTQQSPVAATLYVRNRVREAIRVSKIPDAKSPLPVFAYTRIVFTDQVLKFLSQDELVYTFGETVALGASGIVIWGTLSIMRSMKSCLLLDNYMETILNPYIINVTLAAKMCSQVLCQEQGVCIRKNWNSSDYLHLNPDNFAIQLEKGGKFTVRGKPTLEDLEQFSEKFYCSCYSTLSCKEKADVKDTDAVDVCIADGVCIDAFLKPPMETEEPQIFYNASPSTLSA
# modifications: HuPH20 precursor 1-491; esHuPH20 36-491
# B2: SPAM1-FIVS: C-terminally truncated human PH20, precursor 497 aa (SEQ ID NO:8), mature 462 aa (SEQ ID NO:60) (protein, listed as Homo sapiens)
# chain 1: MGVLKFKHIFFRSFVKSSGVSQIVFTFLLIPCCLTLNFRAPPVIPNVPFLWAWNAPSEFCLGKFDEPLDMSLFSFIGSPRINATGQGVTIFYVDRLGYYPYIDSITGVTVNGGIPQKISLQDHLDKAKKDITFYMPVDNLGMAVIDWEEWRPTWARNWKPKDVYKNRSIELVQQQNVQLSLTEATEKAKQEFEKAGKDFLVETIKLGKLLRPNHLWGYYLFPDCYNHHYKKPGYNGSCFNVEIKRNDDLSWLWNESTALYPSIYLNTQQSPVAATLYVRNRVREAIRVSKIPDAKSPLPVFAYTRIVFTDQVLKFLSQDELVYTFGETVALGASGIVIWGTLSIMRSMKSCLLLDNYMETILNPYIINVTLAAKMCSQVLCQEQGVCIRKNWNSSDYLHLNPDNFAIQLEKGGKFTVRGKPTLEDLEQFSEKFYCSCYSTLSCKEKADVKDTDAVDVCIADGVCIDAFLKPPMETEEPQIFYNASPSTLSATMFIVS
# chain 2: LNFRAPPVIPNVPFLWAWNAPSEFCLGKFDEPLDMSLFSFIGSPRINATGQGVTIFYVDRLGYYPYIDSITGVTVNGGIPQKISLQDHLDKAKKDITFYMPVDNLGMAVIDWEEWRPTWARNWKPKDVYKNRSIELVQQQNVQLSLTEATEKAKQEFEKAGKDFLVETIKLGKLLRPNHLWGYYLFPDCYNHHYKKPGYNGSCFNVEIKRNDDLSWLWNESTALYPSIYLNTQQSPVAATLYVRNRVREAIRVSKIPDAKSPLPVFAYTRIVFTDQVLKFLSQDELVYTFGETVALGASGIVIWGTLSIMRSMKSCLLLDNYMETILNPYIINVTLAAKMCSQVLCQEQGVCIRKNWNSSDYLHLNPDNFAIQLEKGGKFTVRGKPTLEDLEQFSEKFYCSCYSTLSCKEKADVKDTDAVDVCIADGVCIDAFLKPPMETEEPQIFYNASPSTLSATMFIVS
# modifications: HuPH20 precursor 1-497; esHuPH20 36-497
# B3: SPAM1-TMFI: C-terminally truncated human PH20, precursor 495 aa (SEQ ID NO:9), mature 460 aa (SEQ ID NO:61) (protein, listed as Homo sapiens)
# chain 1: MGVLKFKHIFFRSFVKSSGVSQIVFTFLLIPCCLTLNFRAPPVIPNVPFLWAWNAPSEFCLGKFDEPLDMSLFSFIGSPRINATGQGVTIFYVDRLGYYPYIDSITGVTVNGGIPQKISLQDHLDKAKKDITFYMPVDNLGMAVIDWEEWRPTWARNWKPKDVYKNRSIELVQQQNVQLSLTEATEKAKQEFEKAGKDFLVETIKLGKLLRPNHLWGYYLFPDCYNHHYKKPGYNGSCFNVEIKRNDDLSWLWNESTALYPSIYLNTQQSPVAATLYVRNRVREAIRVSKIPDAKSPLPVFAYTRIVFTDQVLKFLSQDELVYTFGETVALGASGIVIWGTLSIMRSMKSCLLLDNYMETILNPYIINVTLAAKMCSQVLCQEQGVCIRKNWNSSDYLHLNPDNFAIQLEKGGKFTVRGKPTLEDLEQFSEKFYCSCYSTLSCKEKADVKDTDAVDVCIADGVCIDAFLKPPMETEEPQIFYNASPSTLSATMFI
# chain 2: LNFRAPPVIPNVPFLWAWNAPSEFCLGKFDEPLDMSLFSFIGSPRINATGQGVTIFYVDRLGYYPYIDSITGVTVNGGIPQKISLQDHLDKAKKDITFYMPVDNLGMAVIDWEEWRPTWARNWKPKDVYKNRSIELVQQQNVQLSLTEATEKAKQEFEKAGKDFLVETIKLGKLLRPNHLWGYYLFPDCYNHHYKKPGYNGSCFNVEIKRNDDLSWLWNESTALYPSIYLNTQQSPVAATLYVRNRVREAIRVSKIPDAKSPLPVFAYTRIVFTDQVLKFLSQDELVYTFGETVALGASGIVIWGTLSIMRSMKSCLLLDNYMETILNPYIINVTLAAKMCSQVLCQEQGVCIRKNWNSSDYLHLNPDNFAIQLEKGGKFTVRGKPTLEDLEQFSEKFYCSCYSTLSCKEKADVKDTDAVDVCIADGVCIDAFLKPPMETEEPQIFYNASPSTLSATMFI
# modifications: HuPH20 precursor 1-495; esHuPH20 36-495
# B4: SPAM1-SATM: C-terminally truncated human PH20, precursor 493 aa (SEQ ID NO:10), mature 458 aa (SEQ ID NO:62) (protein, listed as Homo sapiens)
# chain 1: MGVLKFKHIFFRSFVKSSGVSQIVFTFLLIPCCLTLNFRAPPVIPNVPFLWAWNAPSEFCLGKFDEPLDMSLFSFIGSPRINATGQGVTIFYVDRLGYYPYIDSITGVTVNGGIPQKISLQDHLDKAKKDITFYMPVDNLGMAVIDWEEWRPTWARNWKPKDVYKNRSIELVQQQNVQLSLTEATEKAKQEFEKAGKDFLVETIKLGKLLRPNHLWGYYLFPDCYNHHYKKPGYNGSCFNVEIKRNDDLSWLWNESTALYPSIYLNTQQSPVAATLYVRNRVREAIRVSKIPDAKSPLPVFAYTRIVFTDQVLKFLSQDELVYTFGETVALGASGIVIWGTLSIMRSMKSCLLLDNYMETILNPYIINVTLAAKMCSQVLCQEQGVCIRKNWNSSDYLHLNPDNFAIQLEKGGKFTVRGKPTLEDLEQFSEKFYCSCYSTLSCKEKADVKDTDAVDVCIADGVCIDAFLKPPMETEEPQIFYNASPSTLSATM
# chain 2: LNFRAPPVIPNVPFLWAWNAPSEFCLGKFDEPLDMSLFSFIGSPRINATGQGVTIFYVDRLGYYPYIDSITGVTVNGGIPQKISLQDHLDKAKKDITFYMPVDNLGMAVIDWEEWRPTWARNWKPKDVYKNRSIELVQQQNVQLSLTEATEKAKQEFEKAGKDFLVETIKLGKLLRPNHLWGYYLFPDCYNHHYKKPGYNGSCFNVEIKRNDDLSWLWNESTALYPSIYLNTQQSPVAATLYVRNRVREAIRVSKIPDAKSPLPVFAYTRIVFTDQVLKFLSQDELVYTFGETVALGASGIVIWGTLSIMRSMKSCLLLDNYMETILNPYIINVTLAAKMCSQVLCQEQGVCIRKNWNSSDYLHLNPDNFAIQLEKGGKFTVRGKPTLEDLEQFSEKFYCSCYSTLSCKEKADVKDTDAVDVCIADGVCIDAFLKPPMETEEPQIFYNASPSTLSATM
# modifications: HuPH20 precursor 1-493; esHuPH20 36-493
# Columns and labels:
# CHO-S cells [1] = assay: Western blot analysis of PH20 expression in media and cells after transient expression; type: cell-based, Chinese Hamster; details: media versus cells
# In short: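 CHO-S cells were transiently transfected with mutant PH20-HZ24 plasmids using GeneJuice and expressed for 48-72 h at 37 °C, 5% CO2. Media and cells were harvested separately, with PI-PLC treatment used to release GPI-anchored protein. Non-reduced samples were blotted with rabbit anti-PH20 (0.5 μg/mL), and a band near 66 kDa was scored as PH20.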
# CHO-S cells [2] = assay: PI-PLC treatment of expressing cells, Western blot of media and cells; type: cell-based, Chinese Hamster; details: cells incubated with PI-PLC for 2 hours
# In short: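 CHO-S cells transiently expressing rHuPH20 or C-terminal truncation mutants were treated with PI-PLC (0.5 units/well, or 3.0 units/dish in serum/detergent-free medium) for 2 h at 37 °C after 48–72 h expression. Untreated and treated media and cell extracts were analysed separately by Western blot for PH20.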
# [3] = Triton X-114 partition assay; type: physicochemical; details: partition into aqueous phase of Triton X-114 at 37° C.
# Method: Solubility of a hyaluronidase can be determined by any method known to one of the skill in the art. One method for determining solubility is by detergent partitioning. […] For example, the solubility of the PH20 polypeptides described herein is assessed as described in Example 4. Membrane-anchored hyaluronidases, such as lipid-anchored hyaluronidases, including GPI-anchored hyaluronidases, will partition into the detergent-rich phase, but will partition into the detergent-poor or aqueous phase following treatment with Phospholipase C. Phospholipase C is an enzyme that cleaves the […] found in GPI-anchored proteins. Treatment with PLC will cause release of GPI-linked proteins from the outer cell membrane.
# The samples were heated to 37° C. for 3 minutes to induce phase separation and centrifuged for 3 min at 4000 g at room temperature. Aqueous and detergent phases were removed for SDS-PAGE analysis and Western blotting. Rabbit anti-PH20 IgG (0.5 μg/mL) was used as the primary antibody and HRP-conjugated goat anti-Rabbit IgG (0.1 ng/mL, Cat#DC03L, EMD) was used as the secondary antibody. Full length human PH20, which partitions strongly into the detergent phase, was used as a control.
# [4] = Microtiter hyaluronidase activity assay with biotinylated-hyaluronic acid; type: biochemical; details: 72 hour post transfection supernatant
Molecule,Expressed in Media (CHO-S cells [1]),Expressed in Media Following Addition of PI-PLC (CHO-S cells [2]),Soluble [3],pH 5.5 Activity ([4]; Table 6) [Units/ml],pH 7.4 Activity ([4]; Table 6) [Units/ml],pH 5.5 Activity ([4]; Table 6A) [Units/ml],pH 7.4 Activity ([4]; Table 6A) [Units/ml]
B1,YES,Initially in media,YES,0.5625,0.3645,0.729,0.851
B2,YES,Initially in media,YES,0.216,0.1755,0.162,0.365
B3,YES,Initially in media,YES,0.612,0.45,0.770,0.689
B4,YES,Initially in media,YES,0.7335,0.5715,0.851,0.689
